Experimental findings from publication PMC12866822 are described below.

The target of the experiment is pyruvate kinase M2 (PKM2), endogenous in RAW264.7 macrophages (mouse (endogenous in RAW264.7)) (UniProt P52480). The experiment is described as follows: cross-linking; lysates (RIPA buffer) of cells with endogenous PKM2 (RAW264.7, LX2, WRL68) treated with 1 µM DSS on ice for 1 h, SDS-PAGE, blot with PKM2 antibody; cells treated with the four compounds, or LPS with FE (12.5, 25, 50 µM) or DASA-58.

Chain of pyruvate kinase M2 (PKM2), endogenous in RAW264.7 macrophages, P52480 1-531 (enzyme; other documents disagree on this pair) (P52480 whole entry): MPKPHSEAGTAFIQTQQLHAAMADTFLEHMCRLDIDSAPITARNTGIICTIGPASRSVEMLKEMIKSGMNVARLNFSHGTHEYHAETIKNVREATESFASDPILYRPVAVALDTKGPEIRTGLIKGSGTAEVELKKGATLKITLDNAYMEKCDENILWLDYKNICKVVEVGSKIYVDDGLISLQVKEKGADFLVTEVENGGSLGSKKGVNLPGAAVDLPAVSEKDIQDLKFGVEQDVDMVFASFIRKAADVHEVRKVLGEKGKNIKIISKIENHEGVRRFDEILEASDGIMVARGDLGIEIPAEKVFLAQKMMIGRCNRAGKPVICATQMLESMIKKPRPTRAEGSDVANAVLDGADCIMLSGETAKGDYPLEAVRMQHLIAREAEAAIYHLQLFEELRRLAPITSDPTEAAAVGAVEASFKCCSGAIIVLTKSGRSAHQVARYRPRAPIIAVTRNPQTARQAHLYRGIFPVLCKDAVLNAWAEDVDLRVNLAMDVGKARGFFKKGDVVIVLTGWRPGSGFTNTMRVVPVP

Broadly, the stoichiometry N is a count of units in the complex or per binding partner. “pyruvate kinase M2 (PKM2), endogenous in RAW264.7 macrophages, P52480 1-531 (enzyme; other documents disagree on this pair)” returned a stoichiometry N of 4.
